From US20230404098A1 come the findings set out here.

The target of the test is Bovine kappa casein purified from cow's milk (Sigma Aldrich) (bovine (cow)) (UniProt P02668). The test is described as follows: cell-based or functional assay.
Sequence of UniProt P02668 (P02668 22-190): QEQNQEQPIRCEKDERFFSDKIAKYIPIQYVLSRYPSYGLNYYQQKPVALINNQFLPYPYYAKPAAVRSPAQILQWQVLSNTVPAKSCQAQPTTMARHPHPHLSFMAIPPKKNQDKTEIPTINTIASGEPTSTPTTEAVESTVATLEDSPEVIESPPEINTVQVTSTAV

“Recombinantly-produced N-terminally 6xhistidine-tagged bovine (cow) alpha-s1-casein (lacking PTMs)” yielded an Average A450 (turbidity of the micellar colloid) of 0.13 A450.
